This note sets out measurements from US20260139017A1, “COMPOSITIONS AND METHODS USING REELIN IN ALZHEIMER'S DISEASE” (The General Hospital Corporation, priority 2022, published 2026).

pKd: −log10 of the molar value.

The target of this assay is Neuropilin 1 (NRP1), R&D 3870-N1-025 (UniProt O14786). The assay is described as follows: BLI (Octet), biotinylated NRP1 on SA biosensor, 1:1 global fit. In general terms: BLI is a label-free optical method that tracks binding on a fibre tip over time.
Sequence of Neuropilin 1 (NRP1), R&D 3870-N1-025 (O14786 other isoform, or with tags, fused parts or gaps limits assumed): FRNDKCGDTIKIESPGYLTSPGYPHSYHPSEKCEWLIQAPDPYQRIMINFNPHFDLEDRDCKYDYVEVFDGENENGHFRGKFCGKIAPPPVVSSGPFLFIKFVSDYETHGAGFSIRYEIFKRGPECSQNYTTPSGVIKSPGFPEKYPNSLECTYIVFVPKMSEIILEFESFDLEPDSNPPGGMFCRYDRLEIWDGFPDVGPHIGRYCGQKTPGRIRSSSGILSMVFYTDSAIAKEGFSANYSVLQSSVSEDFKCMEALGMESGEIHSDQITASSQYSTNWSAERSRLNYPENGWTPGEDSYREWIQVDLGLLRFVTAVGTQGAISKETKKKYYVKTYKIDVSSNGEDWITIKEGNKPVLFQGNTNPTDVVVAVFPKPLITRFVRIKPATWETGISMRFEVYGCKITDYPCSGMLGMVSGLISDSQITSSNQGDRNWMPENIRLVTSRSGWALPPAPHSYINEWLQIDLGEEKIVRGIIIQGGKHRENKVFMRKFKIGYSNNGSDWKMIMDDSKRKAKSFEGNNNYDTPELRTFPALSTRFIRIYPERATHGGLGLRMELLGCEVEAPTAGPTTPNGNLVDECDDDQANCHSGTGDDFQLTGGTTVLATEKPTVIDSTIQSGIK

Take “Vascular endothelial growth factor (VEGF) (ligand)”: the pKd – broadly, the Kd on a negative log10 scale, so that one unit is a factor of ten – was 8.26; the koff (as a rule, a measure of how fast the partners let go of each other) was found to be 0.0015 s⁻¹; the kon (usually the second-order rate constant of association) was found to be 272000 M⁻¹ s⁻¹.
